Source: patent US20090053138A1, “Stabilized Aptamers to Platelet Derived Growth Factor and their Use as Oncology Therapeutics” (priority 2002, published 2009)
Strand notation (5' to 3'): a small letter for the sugar, then the base; units joined by * are phosphorothioate-linked, units joined directly phosphodiester-linked; [ ] holds rarer units or linkages, { } end groups; capitals alone tell only the bases. r = 2'-OH (RNA); f = 2'-fluoro

Columns and labels:
[1] = molecular target: PDGF-AA (rat) (Rattus norvegicus, UniProt P28576); test: Dot blot binding assay, PDGF-AA rat; conditions: in the presence of 0.1 mg/mL tRNA
Protocol: (§1) Dot blot binding assays were performed throughout the selection to monitor the protein binding affinity of the pool. Trace ^32P-labeled RNA was combined with PDGF-AA and incubated at room temperature for 30 min in 1×SHMCK plus 0.1 mg/ml tRNA for a final volume of 20 μl. The reaction was added to a dot blot apparatus (Schleicher and Schuell Minifold-1 Dot Blot, Acrylic), assembled (from top to bottom) with nitrocellulose, nylon, and gel blot membranes. RNA that is bound to protein is captured on the nitrocellulose filter, whereas the non-protein bound RNA is captured on the nylon filter. When a significant positive ratio of binding of RNA in the presence of PDGF-AA versus in the absence of PDGF-AA was seen, the pool was cloned using the TOPO TA cloning kit (Invitrogen, Carlsbad. CA) according to the manufacturer's instructions. The Round 10 pool template was cloned, and 17 sequences were obtained. Only five different sequences were seen, with two major families and one unique sequence (not of the two families). […] Clones with high affinity to PDGF-AA were prepped and screened for functionality in cell-based assays.

[2] = molecular target: T1, PDGF-AA (Homo sapiens, UniProt P04085); test: 3T3 proliferation assay (PDGF-AA induced); format: cell-based; conditions: aptamer 0-1 uM, PDGF-AA 50 ng/ml
T1 construct: purchased R&D Systems
Protocol: The assay was set up as previously described, using a titration of PDGF-AA aptamer (0-1 uM) against a constant concentration (50 ng/ml) of PDGF-AA protein (R&D Systems).

[3] = molecular target: T2, PDGF-AA (human short form) (Homo sapiens, UniProt P04085); test: Dot blot binding assay, PDGF-AA human short form; conditions: in the presence of 0.1 mg/mL tRNA
T2 construct: purchased Roche Biomedical
Protocol: as §1

B1: ARX33P1.D2: PDGF-AA (short form) aptamer, 2′-fluoro pyrimidines (SEQ ID NO: 78) (nucleic acid)
chain: rGrGrGrArArArArGfCrGrArAfUfCrAfUrAfCrAfCrArArGrAfCfCrGrGrGrArAfCfUfCrGrGrAfUfUfCfUfUfCrGfCrAfUrGfUrGrGrAfUrGfCrGrAfUfCrArGfUrAfUrGfCfUfCfCrGfCfCrArGrArGrAfCfCrArAfCfCrGrArGrArA
**Q.** Which Kd [1] does the source give for B1 here?
**A.** 51.7 nM

**Q.** What about the “inhibition of PDGF-AA induced 3T3 cell proliferation” value [2] of the same molecule?
**A.** do inhibit PDGF-AA induced 3T3 cell proliferation, but are not very potent

**Q.** And the Kd [3]?
**A.** 104 nM

B2: ARX33P1.E11: PDGF-AA selection clone, 2′-fluoro pyrimidines (SEQ ID NO: 81) (nucleic acid)
chain: rGrGrGrArArArArGfCrGrArAfUfCrAfUrAfCrAfCrArArGrArGrArGfUrGrGrArGrGrArGrGfUrAfUrGfUrAfUrGrGfUfUfUrGfUrGfCrGfUfCfUrGrGfUrGfCrGrGfUrGfCfUfCfCrGfCfCrArGrArGrAfCfCrArAfCfCrGrArGrArA
modifications: aptamer
**Q.** For B2, which “PDGF-AA (rat) Kd (nM)” value [1] is on record?
**A.** N.B.

**Q.** What about the “PDGF-AA (human short form) Kd (nM)” value [3] of the same molecule?
**A.** N.B.

B3: ARX33P1.E10: PDGF-AA (short form) aptamer, 2′-fluoro pyrimidines (SEQ ID NO: 80) (nucleic acid)
chain: rGrGrGrArArArArGfCrGrArAfUfCrAfUrAfCrAfCrArArGrAfCfCrGrGrArArAfCfUfCrGrGrAfUfUfCfUfUfCrGfCrAfUrGfUrGrGrAfUrGfCrGrAfUfCrArGfUrAfUrGfCfUfCfCrGfCfCrArGrArGrAfCfCrArAfCfCrGrArGrArA
**Q.** What does the source list for B3?
**A.** Kd [1]: 47.1 nM; inhibition of PDGF-AA induced 3T3 cell proliferation [2]: do inhibit PDGF-AA induced 3T3 cell proliferation, but are not very potent; Kd [3]: 133 nM

B4: ARX33P1.D1: PDGF-AA selection clone, 2′-fluoro pyrimidines (SEQ ID NO: 77) (nucleic acid)
chain: rGrGrGrArArArArGfCrGrArAfUfCrAfUrAfCrAfCrArArGrAfUfCrGfCfCrArGrGrArGfCrArArArGfUfCrAfCrGrGrArGrGrArGfUrGrGrGrGrGfUrAfCrGrArAfUrGfCfUfCfCrGfCfCrArGrArGrAfCfCrArAfCfCrGrArGrArA
modifications: aptamer
**Q.** B4 was tested. Which “PDGF-AA (rat) Kd (nM)” value [1] did it give?
**A.** N.B.

**Q.** And the “PDGF-AA (human short form) Kd (nM)” value [3]?
**A.** N.B.

B5: ARX33P1.E5: PDGF-AA (short form) aptamer, 2′-fluoro pyrimidines (SEQ ID NO: 79) (nucleic acid)
chain: rGrGrGrArArArArGfCrGrArAfUfCrAfUrAfCrAfCrArArGrAfCfCrGrGrGrArAfCfUfCrGrGrAfUfUfCfUfUfCrAfCrAfUrGfUrGrGrAfUrGfUrGrAfUfCrArGfUrAfUrGfCfUfCfCrGfCfCrArGrArGrAfCfCrArAfCfCrGrArGrArA
**Q.** Which Kd [1] does the source give for B5 here?
**A.** 57.4 nM

**Q.** What about the “inhibition of PDGF-AA induced 3T3 cell proliferation” value [2] of the same molecule?
**A.** do inhibit PDGF-AA induced 3T3 cell proliferation, but are not very potent

**Q.** What about the Kd [3] of the same molecule?
**A.** 117 nM
